From the domain aggregation screens of Martell et al. (2025)

Test: soluble fraction after stress (log2 fold change); higher = more stays soluble; pooled small domains, quantitative proteomics
Details: stress: 50 degC
Procedure, shortened: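 The stress applied to every library was 50°C. These custom libraries of small protein domains were pooled and measured at high throughput with quantitative proteomics as the read-out. Aggregation propensity is expressed as the base-two logarithm of the fold change in how much of each protein remains soluble. The higher the value, the more of that protein stays in solution.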

Sequence | soluble fraction (log2)
HMIQIQDIAFSEFLQELDKGNIVEVNIKGDLINGDLINGKKFKTVAPYDPNLVEKLSKQNVRINVEPIN | 0.125
HMDAVSTMIENLRVKTGKSLADWVGLAKGSGADKHGAMVGWLKSEHGLTHGYANLIAHETFRSAA | 0.0392
HMFEATGKITGTEVSFRRKPTTDSERILFFDINTEFRVIGINNGWYKGVYQGKTGYVRSDFVEIVGG | -0.162
HMARRSRADAVRNREALIDAAKAAFTEAGPDVSLEEIARRAGVGIGTLYRHFPTRDAVIEAVYR | 0.0559
HMQISDEGELSGIVRKIIDANPQSVADYKAGKKKAIGFLVGQIMIETKGRANPASVNELLIKKLE | -0.0642
HMADKNIIGVLSAADNLGKVRITTANGEKYIITVPDGLSDIVKTYWEEEVSVKYVIEKRRKILVDIDG | -1.67
HMQEEELYPRLEEVINQHRGKGEDLIMVLHKAQNLFGYLPRRAQEMVAEGLNVSLNEVYGVITFYNFFST | -0.0621
HMENKLIELTLSLDKSERLDKILTQELSHTRSVIQQWLKSGFVSVNGEIVKANYKAKDGDHVTIQIE | -0.198
HMIKEVGYEKFMQMTEEEDIGRVEIDQEENQITFTDKDETAIYKTGMVDDPDLTERLYDAGAEFS | 0.0297
HMGTRHPLPYAYARANTVLLEDDGDRLVLWAPENVSLTALGEVLRRFDVDALERESSSTLANRIAVAYAG | -0.751
HMNQSYQLWIKDDELGPTPRSVGVLNEHFEVDPAALTNYDAELLRRATFGISLEPRGGSPTGQP | -0.0224
HMESGSSKINQDILETFTRGKKSLSISDISRLSGHHRHTVARYLDNLVSSGKLEMRQHGQKKKYYLSDIQP | 0.0308
HMQQVLGDVNEDDKVDFLDAIVVLRHDAEIIQLTDNQMKAAEVNKDGKVDFLDAIMILRYDAEIIGS | -0.0952
HMGFSDDEHNALADADLKKALEVTTNKSETQYNIAKLIYSYIISLGDKKPYGDWSYDKALSIIHDA | 0.0519
HMISKYLRIESDILSAIREGRLKPGDKLPGQSEMRRIYNVSAITVRKAFTDLINDGYLVGVRGSGTYVAKR | -0.703
HMLSDAAAMESIAYEAIRQMEPDTYYIIGAGTTTRGIMEVLGLKNTLIGVDLIRNKELVANDLGGKELLSY | 0.0353
HMSRELVILGNSMLNNALKAFHVSPASIKKKHWDKLILDYHLESKNNILIDIALGKRINVMVAHQLTSIID | 0.56
HMNGVFIMHTPDGKVLRTEEGEEAVITLFNWSGQLLWSKTSLGQLPLPEGTQGVLQVQYKSGDQHTIKT | -0.267
HMKHTQTDEGELLSTLRTLFPNSSSSSLRKMLTQGRILVNQEVVHRAKHALQAGDEIEVLARQ | -0.122
HMTVGENTYELIKKDIIFGVLPPLKKLKLQELKKIYNASVSTLREILSRLTGDGFVFSEEQKGFYVSPV | 0.00444
HMDPKWSHVRRLLDDENPIVRKALTEELIRSPEEGLAFLEQVIREPDHLLAKHAHNLLSELGWV | 0.0264
HMGVSEIGSPAWMESKLVTLASYEGSLDGLRTLWGGVAQHRARIPVESWDRLFAAKEEGKARLVKLGRT | -1.19
HMSEEVDVPDLVGMQLEEAEKSLEPLGLKLKIAKEIPNSEFEKGKIVDQKTKAGEKVKTGYTIEVTVSSG | -0.267
HMVSFAEQASDWLAHFDRLGDVGPDTTLTDLTARDAEFSAWVNEGIHHRVAFLETLAAWHRTER | -0.774
HMHPEQTLEKIVDISAELFAKKGYEQTSIQDILDATGLSKGGLYHHFKSKEEILEAVMQKRVQY | 0.0883
HMSDFEASDPALLREGMRVQHLNFGKGTVITIEGAGANKKASVAFDGVGTKQLMLRFARLKIIYE | -0.146
HMTTMYKSDVKGINYDVKAKSWFLRITFNGNQIPIGHFKTEEDAINVKQQLIPYIESKDYTSILAVKAKYS | -0.4
HMSNVKVYPNPTSGKLTIDAENYKGVEVYDTSGRLIVKSELRTIDLEEQSKGLYLLKVNANGTTQEFKVFK | 0.0145

Sequence | soluble fraction (log2)
HMGYVQLTAREKEVLQGLVDGASYKMIAAKLDIRFGTVHTHVKNIYEKLHVNSASEAVVKAIRQRL | -2.46
HMFGGIEFGWSQLPDGRVEYIIQLDDQAIAALKNGRSLTSSLPPEVQNADRIRIQYGAGPVEKGLLLQ | 0.0674
HMEPREALDGLISERGETYASISRLLGRNSAYIQQFIKRGSPARLDQSDIALLALHFDVPVEMLGGKE | -0.42
HMDDGARQLVDQLNRLIANPAVSARIIHGYLILEGRVESEWEKTRTLLLAQVAGLPVIDLITVS | -1.85
HMYIVVPDLSKKDINEVANILAAQSLRFQVIDSANFRSDFPKNAVISQKPLAGSEVKVNKKIYLQLNPS | -0.345
HMANAGKFDSDMGEKINFPGNRVSLTPSELEAARELAAIMGDRFFSQLIPTTSKVTVTEMLQSLK | 0.3
HMDPALSPAEQKIWDLLAAGETHIDDLVRASGLPVATVNSALVMMEMKEVISQVAAKTYRRNRRN | -0.0324
HMRININNASARQIADALPGVGLKTARDIKDFQTTLSGERYTRLDQLHSIKRVDWDEIFKADLVRV | -0.0293
HMAAIPEQVSEEVVSAVKASGIDPGKVTKEQWTSLLKGRRTALGSSSGKLFMLSKAPVGYTLKAVNA | 0.333
HMLSLTSRQQEIFDLIKGHIKKTGMPPTRSEIALHFGFRSANSAEEHLRALARKGFIELIPGTSRGIKLIE | -0.892
HMDALIWYVSRGQQKFGPFNYFGVLKALQDKSVFEFDYVWKEGTENWVRLAEHELFSQEKVRELLA | -0.203
HMRGVDRPLTLPRHWRRNAGRLVKVTLANGSAVTGRVLDPGEERVTLEVSGERHEVAYADVKKALVQVEF | -0.169
HMKSQSIFNVKKGDTLSHIAVHVLKKNKQKVTPEAINKMVSNIAFRNKIKNPDLIFPGQKLVLEY | 0.117
HMEGVTVPDVTRISLDEAEELLTSYGLRFEVADRRANSAFPGNYVIDQAPSAEVIVKPNRKIYLTVNAA | -0.134
HMGVISRVITFWQNGFTVDDGPLRAFDDPANMAFMESIGRGEAPAELAPKTRTQRVNINLVQRHEPYSAPK | -0.0726
HMPLQKNRPKIKPQKVVFLFSVEWMWSPAHNRIDSYFINIKPSRYYLWNSFFDRHSFSDYWDFIGYTEN | -0.0868
HMGSKKAIPYVSGMSETEAQNELEEAGFKVTSSFQYDDSVESGKVISTTPEAGTKAEKGSTVTMLVSQGSN | -0.114
HMTALTTEDLERRFYAKTYEGESAQKRLARLEISVFGELRQGRPESDRLHDLNNAVLEKERAALNAGAVG | 0.123
HMQVAPDLMQRLTSQGHVDEKLSDALVHARQITNFEGRRRQMQFIGKLMRKLSEESIEAVKDALNEQRM | -0.264
HMSLLTIDELSQATGVSVRTLRYYVSSGVLDKPTGETRNARYGTHHLDQVRNIKKLQEEGLTLNRILEIKK | -1.65
HMKYVDYYATLGVARDADLATITKAYRKLARQTHPDLNQGADNEARFKAAAEAYATLKHPEKRAAYDELGQ | -0.00408
HMNNTIKFSVDSQNSGKRLDIFLTENIKNYTRSFLKKLIENRQVKLNNNFIISPSERVKFKDQININILQ | -1.17
HMIPENKRVLISLTYIYGIGKKISQDILEKANIDSSIKTSQLTDDDVARIRQLIENDYLVEGELRV | 0.0489
HMSRQDYLQTIYRLSVGKGYTTNKKIADFLSVSKPSVTEMIGKLQGEGLVAMDGAHIFLTEDGAEQ | -0.567
HMPFNLKSLADRLSHVFPGLVKMRDDIGAIIVMDKIKVTEHGVTEGGGLAADRVRAVYNEFIKEY | 0.195
HMNDRLAGMEGQRGEAATNFDQGEGKVKVGDTVWLAKQSDSTVIVEGDQIVVTGSENGLLKVRL | -0.165
HMEETEVPPVTGYEQSKASEVLTGKGLIPDIITVADEETAAGYVIRTDPASGEKVPSGTTVKVYVSSGP | 0.159
